For this experiment, the target named is actin filament (skeletal muscle actin) (Oryctolagus cuniculus, UniProt P68135). The experiment in a line: TIRF microscopy (steady-state fluorescence density).

B1: anillin (protein)
chain: MDPFTEKLLERTRARRENLQRKMAERPTAAPRSMTHAKRARQPLSEASNQQPLSGGEEKSCTKPSPSKKRCSDNTEVEVSNLENKQPVESTSAKSCSPSPVSPQVQPQAADTISDSVAVPASLLGMRRGLNSRLEATAASSVKTRMQKLAEQRRRWDNDDMTDDIPESSLFSPMPSEEKAASPPRPLLSNASATPVGRRGRLANLAATICSWEDDVNHSFAKQNSVQEQPGTACLSKFSSASGASARINSSSVKQEATFCSQRDGDASLNKALSSSADDASLVNASISSSVKATSPVKSTTSITDAKSCEGQNPELLPKTPISPLKTGVSKPIVKSTLSQTVPSKGELSREICLQSQSKDKSTTPGGTGIKPFLERFGERCQEHSKESPARSTPHRTPIITPNTKAIQERLFKQDTSSSTTHLAQQLKQERQKELACLRGRFDKGNIWSAEKGGNSKSKQLETKQETHCQSTPLKKHQGVSKTQSLPVTEKVTENQIPAKNSSTEPKGFTECEMTKSSPLKITLFLEEDKSLKVTSDPKVEQKIEVIREIEMSVDDDDINSSKVINDLFSDVLEEGELDMEKSQEEMDQALAESSEEQEDALNISSMSLLAPLAQTVGVVSPESLVSTPRLELKDTSRSDESPKPGKFQRTRVPRAESGDSLGSEDRDLLYSIDAYRSQRFKETERPSIKQVIVRKEDVTSKLDEKNNAFPCQVNIKQKMQELNNEINMQQTVIYQASQALNCCVDEEHGKGSLEEAEAERLLLIATGKRTLLIDELNKLKNEGPQRKNKASPQSEFMPSKGSVTLSEIRLPLKADFVCSTVQKPDAANYYYLIILKAGAENMVATPLASTSNSLNGDALTFTTTFTLQDVSNDFEINIEVYSLVQKKDPSGLDKKKKTSKSKAITPKRLLTSITTKSNIHSSVMASPGGLSAVRTSNFALVGSYTLSLSSVGNTKFVLDKVPFLSSLEGHIYLKIKCQVNSSVEERGFLTIFEDVSGFGAWHRRWCVLSGNCISYWTYPDDEKRKNPIGRINLANCTSRQIEPANREFCARRNTFELITVRPQREDDRETLVSQCRDTLCVTKNWLSADTKEERDLWMQKLNQVLVDIRLWQPDACYKPIGKP
modifications: anillin C-terminal GFP tag; F-actin stabilised with biotin-phalloidin
B1 came in with a Kd of 7.82 nM.
